Measured values from the supplement of paper PMC9112550, “Optimization of the antimicrobial peptide Bac7 by deep mutational scanning” (BMC Biology, 2022).

Tested on: Escherichia coli TOP10
Test: shrunken log2 fold change of peptide-encoding DNA abundance (4.5 h post-induction vs induction); higher = less antimicrobial activity (less host growth inhibition)
Settings: time post-induction: 4.5 h; library: site-saturation at positions 5, 18, 19, 20
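Note: peptides expressed intracellularly from a pBAD plasmid library in pooled LB shake-flask culture, induced with 0.3% L-arabinose, DNA abundance read by NGS, three biological replicates, DESeq2 with apeglm shrinkage.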

Row | Sequence | shrunken log2 fold change
1 | RRIRDRPPRLPRPRPRPYQSPRP | -1.12
2 | RRIRDRPPRLPRPRPRPYRCPRP | -0.0315
3 | RRIRDRPPRLPRPRPRPYRPPRP | -0.00509
4 | RRIRDRPPRLPRPRPRPYSIPRP | 0.0125
5 | RRIRDRPPRLPRPRPRPYSSPRP | -0.152
6 | RRIRDRPPRLPRPRPRPYSYPRP | -0.0279
7 | RRIRDRPPRLPRPRPRPYTDPRP | 0.0446
8 | RRIRDRPPRLPRPRPRPYTGPRP | -1.03
9 | RRIRDRPPRLPRPRPRPYVIPRP | -0.116
10 | RRIRDRPPRLPRPRPRPYVKPRP | -0.313
11 | RRIRDRPPRLPRPRPRPYWHPRP | -0.921
12 | RRIRDRPPRLPRPRPRPYWPPRP | -0.547
13 | RRIRDRPPRLPRPRPRPYYMPRP | -0.399
14 | RRIRDRPPRLPRPRPRPYYRPRP | -0.163
15 | RRIRERPPRLPRPRPRPADGPRP | -0.0752
16 | RRIRERPPRLPRPRPRPADHPRP | -0.0618
17 | RRIRERPPRLPRPRPRPAEKPRP | -0.0431
18 | RRIRERPPRLPRPRPRPAERPRP | 0.104
19 | RRIRERPPRLPRPRPRPAGEPRP | 0.0657
20 | RRIRERPPRLPRPRPRPAGKPRP | -0.0958
21 | RRIRERPPRLPRPRPRPAGMPRP | -0.0133
22 | RRIRERPPRLPRPRPRPAHHPRP | -0.338
23 | RRIRERPPRLPRPRPRPAHKPRP | -0.154
24 | RRIRERPPRLPRPRPRPAIEPRP | -0.136
25 | RRIRERPPRLPRPRPRPAIRPRP | -0.0312

Row | Sequence | shrunken log2 fold change
26 | RRIRERPPRLPRPRPRPANFPRP | -0.163
27 | RRIRERPPRLPRPRPRPANKPRP | -0.632
28 | RRIRERPPRLPRPRPRPANSPRP | -0.0581
29 | RRIRERPPRLPRPRPRPAPHPRP | 0.704
30 | RRIRERPPRLPRPRPRPAPIPRP | 0.0258
31 | RRIRERPPRLPRPRPRPAPSPRP | 0.116
32 | RRIRERPPRLPRPRPRPAQAPRP | 0.073
33 | RRIRERPPRLPRPRPRPAQWPRP | 0.184
34 | RRIRERPPRLPRPRPRPARGPRP | 0.644
35 | RRIRERPPRLPRPRPRPARTPRP | 0.0417
36 | RRIRERPPRLPRPRPRPASFPRP | -0.285
37 | RRIRERPPRLPRPRPRPATAPRP | 0.147
38 | RRIRERPPRLPRPRPRPATIPRP | -0.105
39 | RRIRERPPRLPRPRPRPATVPRP | -0.2
40 | RRIRERPPRLPRPRPRPATWPRP | -0.014
41 | RRIRERPPRLPRPRPRPAVHPRP | -0.144
42 | RRIRERPPRLPRPRPRPAWIPRP | 0.121
43 | RRIRERPPRLPRPRPRPAYCPRP | 0.0672
44 | RRIRERPPRLPRPRPRPCCFPRP | -0.248
45 | RRIRERPPRLPRPRPRPCEMPRP | 0.118
46 | RRIRERPPRLPRPRPRPCETPRP | -0.336
47 | RRIRERPPRLPRPRPRPCFAPRP | 0.0529
48 | RRIRERPPRLPRPRPRPCFEPRP | -0.258
49 | RRIRERPPRLPRPRPRPCGKPRP | -0.00192
50 | RRIRERPPRLPRPRPRPCGQPRP | -0.0982

Row | Sequence | shrunken log2 fold change
51 | RRIRERPPRLPRPRPRPCHMPRP | 0.0597
52 | RRIRERPPRLPRPRPRPCKAPRP | -0.0137
53 | RRIRERPPRLPRPRPRPCKHPRP | -0.5
54 | RRIRERPPRLPRPRPRPCLYPRP | -0.489
55 | RRIRERPPRLPRPRPRPCNEPRP | -1.12
56 | RRIRERPPRLPRPRPRPCPVPRP | 0.0397
57 | RRIRERPPRLPRPRPRPCQAPRP | -0.0282
58 | RRIRERPPRLPRPRPRPCQYPRP | -0.138
59 | RRIRERPPRLPRPRPRPCRVPRP | -0.25
60 | RRIRERPPRLPRPRPRPCSKPRP | 0.2
61 | RRIRERPPRLPRPRPRPCSQPRP | -0.0493
62 | RRIRERPPRLPRPRPRPCSTPRP | -0.702
63 | RRIRERPPRLPRPRPRPCVVPRP | 0.0441
64 | RRIRERPPRLPRPRPRPDCCPRP | -0.157
65 | RRIRERPPRLPRPRPRPDCHPRP | -0.011
66 | RRIRERPPRLPRPRPRPDDHPRP | -0.284
67 | RRIRERPPRLPRPRPRPDDMPRP | -0.0903
68 | RRIRERPPRLPRPRPRPDEAPRP | 0.323
69 | RRIRERPPRLPRPRPRPDEMPRP | -0.0223
70 | RRIRERPPRLPRPRPRPDFFPRP | -0.279
71 | RRIRERPPRLPRPRPRPDFVPRP | 0.105
72 | RRIRERPPRLPRPRPRPDGIPRP | -0.00168
73 | RRIRERPPRLPRPRPRPDGSPRP | 0.0355
74 | RRIRERPPRLPRPRPRPDIAPRP | -0.0321
75 | RRIRERPPRLPRPRPRPDIWPRP | -0.0258

Row | Sequence | shrunken log2 fold change
76 | RRIRERPPRLPRPRPRPDKFPRP | -0.466
77 | RRIRERPPRLPRPRPRPDKLPRP | -1.81
78 | RRIRERPPRLPRPRPRPDMEPRP | -0.201
79 | RRIRERPPRLPRPRPRPDMPPRP | -0.447
80 | RRIRERPPRLPRPRPRPDPGPRP | 0.0879
81 | RRIRERPPRLPRPRPRPDPMPRP | -0.0562
82 | RRIRERPPRLPRPRPRPDRMPRP | -0.0498
83 | RRIRERPPRLPRPRPRPDTAPRP | -0.131
84 | RRIRERPPRLPRPRPRPDTSPRP | -0.417
85 | RRIRERPPRLPRPRPRPDTTPRP | 0.0503
86 | RRIRERPPRLPRPRPRPDVRPRP | 0.0184
87 | RRIRERPPRLPRPRPRPDVTPRP | 0.00636
88 | RRIRERPPRLPRPRPRPDWSPRP | -0.0645
89 | RRIRERPPRLPRPRPRPDWTPRP | 0.0763
90 | RRIRERPPRLPRPRPRPDYCPRP | -0.00145
91 | RRIRERPPRLPRPRPRPDYEPRP | -0.202
92 | RRIRERPPRLPRPRPRPDYYPRP | -0.603
93 | RRIRERPPRLPRPRPRPEAVPRP | 0.292
94 | RRIRERPPRLPRPRPRPEAYPRP | -0.0132
95 | RRIRERPPRLPRPRPRPECKPRP | -0.132
96 | RRIRERPPRLPRPRPRPEDKPRP | -0.034
97 | RRIRERPPRLPRPRPRPEEEPRP | 0.102
98 | RRIRERPPRLPRPRPRPEELPRP | 0.174
99 | RRIRERPPRLPRPRPRPEFMPRP | -0.096
100 | RRIRERPPRLPRPRPRPEGRPRP | 0.583

Row | Sequence | shrunken log2 fold change
101 | RRIRERPPRLPRPRPRPEHAPRP | -0.0115
102 | RRIRERPPRLPRPRPRPEHMPRP | -0.0272
103 | RRIRERPPRLPRPRPRPEHSPRP | -0.312
104 | RRIRERPPRLPRPRPRPEKLPRP | -0.296
105 | RRIRERPPRLPRPRPRPELAPRP | 0.161
106 | RRIRERPPRLPRPRPRPELDPRP | 0.0389
107 | RRIRERPPRLPRPRPRPELWPRP | 0.273
108 | RRIRERPPRLPRPRPRPENFPRP | -0.195
109 | RRIRERPPRLPRPRPRPENWPRP | -0.0337
110 | RRIRERPPRLPRPRPRPEPAPRP | 0.428
111 | RRIRERPPRLPRPRPRPEPLPRP | -0.091
112 | RRIRERPPRLPRPRPRPEPRPRP | 0.379
113 | RRIRERPPRLPRPRPRPEPTPRP | 0.327
114 | RRIRERPPRLPRPRPRPEQMPRP | -6.54e-05
115 | RRIRERPPRLPRPRPRPERSPRP | 0.149
116 | RRIRERPPRLPRPRPRPESIPRP | 0.089
117 | RRIRERPPRLPRPRPRPESLPRP | 0.0354
118 | RRIRERPPRLPRPRPRPETFPRP | -0.0158
119 | RRIRERPPRLPRPRPRPEVRPRP | 0.138
120 | RRIRERPPRLPRPRPRPEWAPRP | 0.103
121 | RRIRERPPRLPRPRPRPEWHPRP | 0.0244
122 | RRIRERPPRLPRPRPRPEWKPRP | 0.0685
123 | RRIRERPPRLPRPRPRPEWLPRP | -0.062
124 | RRIRERPPRLPRPRPRPFAFPRP | -0.0942
125 | RRIRERPPRLPRPRPRPFCFPRP | -0.106

Row | Sequence | shrunken log2 fold change
126 | RRIRERPPRLPRPRPRPFCRPRP | -0.0911
127 | RRIRERPPRLPRPRPRPFDEPRP | -0.433
128 | RRIRERPPRLPRPRPRPFDWPRP | 0.0619
129 | RRIRERPPRLPRPRPRPFFCPRP | -0.0755
130 | RRIRERPPRLPRPRPRPFFKPRP | -0.37
131 | RRIRERPPRLPRPRPRPFFPPRP | -0.241
132 | RRIRERPPRLPRPRPRPFHHPRP | 0.0149
133 | RRIRERPPRLPRPRPRPFHVPRP | -0.854
134 | RRIRERPPRLPRPRPRPFIDPRP | -0.288
135 | RRIRERPPRLPRPRPRPFIQPRP | -0.176
136 | RRIRERPPRLPRPRPRPFKAPRP | 2.45
137 | RRIRERPPRLPRPRPRPFKCPRP | -0.457
138 | RRIRERPPRLPRPRPRPFKKPRP | -0.0194
139 | RRIRERPPRLPRPRPRPFKSPRP | -0.0568
140 | RRIRERPPRLPRPRPRPFLMPRP | -0.209
141 | RRIRERPPRLPRPRPRPFMKPRP | -0.0971
142 | RRIRERPPRLPRPRPRPFNKPRP | -0.383
143 | RRIRERPPRLPRPRPRPFPRPRP | 0.087
144 | RRIRERPPRLPRPRPRPFQDPRP | 0.0039
145 | RRIRERPPRLPRPRPRPFQTPRP | 0.11
146 | RRIRERPPRLPRPRPRPFRDPRP | 0.0112
147 | RRIRERPPRLPRPRPRPFSIPRP | 0.00587
148 | RRIRERPPRLPRPRPRPFSLPRP | -0.2
149 | RRIRERPPRLPRPRPRPFTFPRP | -0.275
150 | RRIRERPPRLPRPRPRPFTNPRP | -0.457
